According to publication PMC8086558, “Membrane Interactions of the Peroxisomal Proteins PEX5 and PEX14” (Frontiers in Cell and Developmental Biology, 2021):

B1: PEX14 NTD (residues 1–104) (domain or fragment, human, UniProt O75381 1-104, looked up)
chain: MASSEQAEQPSQPSSTPGSENVLPREPLIATAVKFLQNSRVRQSPLATRRAFLKKKGLTDEEIDMAFQQSGTAADEPSSLGPATQVVPVQPPHLISQPYSPAGS
notes: human PEX14, N-terminal region up to the transmembrane span, residues 1-104, codon-optimised synthetic gene; holds the globular helical domain (residues 16-80); also called PEX14 (1–104); Pex14 (1–104); source: E. coli BL21 (DE3), purified (Ni-NTA, TEV cleavage, reverse Ni2+ column, SEC Superdex S75); not shown: His6, N-terminal, cleaved
B2: PEX5 NTD (residues 1–315) (domain or fragment)
chain: not shown
notes: human PEX5, N-terminal intrinsically disordered domain, residues 1-315, codon-optimised synthetic gene; harbours eight WF-like motifs (W0-W7); No primer pair is printed for the 1-315 construct; also called PEX5 (1–315); Pex5 (1–315); source: E. coli BL21 (DE3), purified (Ni-NTA under urea lysis, SEC Superdex S75), lyophilized; not shown: His6, N-terminal, kept

How the values were obtained:
Settings in all cases: both partners purified
[1] = molecular target: B2; test: ITC; 50 uM PEX5 (1-315) injected into the cell with 30 uM PEX14 (1-104); 25 °C; 20 mM NaP pH 6.5, 100 mM NaCl, no bicelles; triplicates; one-site model, number of sites set to 1/8
[2] = molecular target: B2; test: ITC; 50 uM PEX5 (1-315) injected into the cell with 30 uM PEX14 (1-104); 25 °C; 20 mM NaP pH 6.5, 100 mM NaCl with 44 uM DMPC/D7PC bicelles; triplicates; one-site model, number of sites set to 1/8
[3] = molecular target: B1; test: ITC; 50 uM PEX5 (1-315) injected into the cell with 30 uM PEX14 (1-104); 25 °C; 20 mM NaP pH 6.5, 100 mM NaCl, no bicelles; triplicates; one-site model, number of sites set to 1/8
[4] = molecular target: B1; test: ITC; 50 uM PEX5 (1-315) injected into the cell with 30 uM PEX14 (1-104); 25 °C; 20 mM NaP pH 6.5, 100 mM NaCl with 44 uM DMPC/D7PC bicelles; triplicates; one-site model, number of sites set to 1/8

Binder	Kd [1] [nM]	Kd [2] [nM]	dH [3] [kcal/mol]	stoichiometry N [3]	dH [4] [kcal/mol]	stoichiometry N [4]
B1	147 ± 16	260 ± 26				
B2			-147 ± 7	0.125	-92 ± 3	0.125
